Laboratory results: the supplement of paper PMC9233669
Fewer inactive variants are shown than the library holds.

Key:
[1] = tested on: biotinyl-Phe-oxazolone; assay: self-aminoacylation, catalytic enhancement (BFO) (fold over background); higher = more active; k-Seq, kA / k0A0; sequences stand for … in GGGAAUGGAUCCACAUCUACGAAUUC…UUCACUGCAGACUUGACGAAGCUG
Method in brief: (§1)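 Each biotinyl-aminoacyl-oxazolone, at 2–1250 μM, was incubated with mutagenized RNA pools (0.43 μM) carrying a 21-nt variable region. The 50 μL reactions contained HEPES/NaCl/KCl/MgCl2/CaCl2 buffer with 5% acetonitrile at pH 6.9–7.0 and ran for 90 minutes at room temperature. After streptavidin capture, RNA was measured by qPCR in triplicate and by Illumina sequencing, and catalytic enhancement was calculated as median kA over the uncatalyzed rate from a pseudo-first-order fit of per-sequence fraction reacted.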

[2] = tested on: biotinyl-Ile-oxazolone; assay: self-aminoacylation, catalytic enhancement (BIO) (fold over background); higher = more active; k-Seq, kA / k0A0; sequences stand for … in GGGAAUGGAUCCACAUCUACGAAUUC…UUCACUGCAGACUUGACGAAGCUG
Method in brief: as §1

[3] = tested on: biotinyl-Met-oxazolone; assay: self-aminoacylation, catalytic enhancement (BMO) (fold over background); higher = more active; k-Seq, kA / k0A0; sequences stand for … in GGGAAUGGAUCCACAUCUACGAAUUC…UUCACUGCAGACUUGACGAAGCUG
Method in brief: as §1

[4] = tested on: biotinyl-Val-oxazolone; assay: self-aminoacylation, catalytic enhancement (BVO) (fold over background); higher = more active; k-Seq, kA / k0A0; sequences stand for … in GGGAAUGGAUCCACAUCUACGAAUUC…UUCACUGCAGACUUGACGAAGCUG
Method in brief: as §1

[5] = tested on: biotinyl-Leu-oxazolone; assay: self-aminoacylation, catalytic enhancement (BLO) (fold over background); higher = more active; k-Seq, kA / k0A0; sequences stand for … in GGGAAUGGAUCCACAUCUACGAAUUC…UUCACUGCAGACUUGACGAAGCUG
Method in brief: as §1

[6] = tested on: biotinyl-Trp-oxazolone; assay: self-aminoacylation, catalytic enhancement (BWO) (fold over background); higher = more active; k-Seq, kA / k0A0; sequences stand for … in GGGAAUGGAUCCACAUCUACGAAUUC…UUCACUGCAGACUUGACGAAGCUG
Method in brief: as §1

Row | Sequence | self-aminoacylation [1] | self-aminoacylation [2] | self-aminoacylation [3] | self-aminoacylation [4] | self-aminoacylation [5] | self-aminoacylation [6]
1 | CUACUUCAUACAAUGGGUCUG [Fam1A.1 aminoacylation ribozyme variant] | 0.65 | 0.805 | 0.755 | 0.757 | 0.803 | 0.764
2 | CUACUUCCAACAAUAGGUCUG [Fam1A.1 aminoacylation ribozyme variant] | 0.659 | 0.744 | 0.562 | 0.688 | 0.578 | 0.417
3 | CUACUUCCAACAAUCGGUCAG [Fam1A.1 aminoacylation ribozyme variant] | 1.04 | 0.795 | 0.62 | 0.774 | 0.663 | 0.518
4 | CUACUUCGAACAAACGGUCUG [Fam1A.1 aminoacylation ribozyme variant] | 0.51 | 0.709 | 0.664 | 0.805 | 0.535 | 0.619
5 | CUACUUCGAACAAGCGGUCUG [Fam1A.1 aminoacylation ribozyme variant] | 0.721 | 0.727 | 0.624 | 0.64 | 0.9 | 0.528
6 | CUACUUCGAACAAUCGGGCUG [Fam1A.1 aminoacylation ribozyme variant] | 0.645 | 1.3 | 1.02 | 1.54 | 1.24 | 1.57
7 | CUACUUCGAACGAUCGGUCUG [Fam1A.1 aminoacylation ribozyme variant] | 0.279 | 0.846 | 0.779 | 1.04 | 1.06 | 0.707
8 | CUACUUCGUACAAUCGGUCUG [Fam1A.1 aminoacylation ribozyme variant] | 0.251 | 0.571 | 0.519 | 0.685 | 0.596 | 0.327
9 | CUACUUCUAACAAGCGGUCUG [Fam1A.1 aminoacylation ribozyme variant] | 0.708 | 0.801 | 0.708 | 0.694 | 0.658 | 0.64
10 | CUACUUCUAACAAUCCGUCUG [Fam1A.1 aminoacylation ribozyme variant] | 0.709 | 0.905 | 0.679 | 0.792 | 0.656 | 0.586
11 | CUACUUCUAACAAUCGGACUG [Fam1A.1 aminoacylation ribozyme variant] | 0.602 | 0.566 | 0.398 | 0.572 | 0.495 | 0.419
12 | CUACUUCUAACAAUCGGUCUG [Fam1A.1 aminoacylation ribozyme variant] | 0.785 | 0.658 | 0.608 | 0.693 | 0.585 | 0.532
13 | CUACUUCUAACAAUCGGUGUG [Fam1A.1 aminoacylation ribozyme variant] | 0.728 | 0.844 | 0.91 | 0.687 | 0.907 | 0.569
14 | CUACUUCUAACCAUCGGUCUG [Fam1A.1 aminoacylation ribozyme variant] | 0.859 | 0.703 | 0.659 | 0.761 | 0.653 | 0.45
15 | CUACUUCUAUCAAUCGGUCUG [Fam1A.1 aminoacylation ribozyme variant] | 0.796 | 0.7 | 0.636 | 0.63 | 0.554 | 0.493
16 | CUACUUGAAACAAACGGUCUG [Fam1A.1 aminoacylation ribozyme variant] | 0.858 | 1.02 | 1.05 | 0.985 | 0.826 | 1.03
17 | CUACUUGAAACAAUCGGGCUG [Fam1A.1 aminoacylation ribozyme variant] | 1.26 | 1.51 | 1.95 | 1.93 | 1.83 | 2.37
18 | CUACUUGAAACAAUCGGUCCG [Fam1A.1 aminoacylation ribozyme variant] | 0.497 | 0.929 | 1.31 | 1.02 | 0.748 | 1.48
19 | CUACUUGAAACGAUCGGUCUG [Fam1A.1 aminoacylation ribozyme variant] | 0.916 | 0.968 | 1.11 | 1.05 | 1.24 | 0.726
20 | CUACUUGAUACAAUCGGUCUG [Fam1A.1 aminoacylation ribozyme variant] | 0.52 | 0.753 | 0.735 | 0.776 | 0.734 | 0.517
21 | CUACUUUAAACAAUCGGACUG [Fam1A.1 aminoacylation ribozyme variant] | 0.698 | 0.901 | 0.874 | 0.757 | 0.759 | 0.809

Row | Sequence | self-aminoacylation [1] | self-aminoacylation [2] | self-aminoacylation [3] | self-aminoacylation [4] | self-aminoacylation [5] | self-aminoacylation [6]
22 | CUACUUUAAACAAUCGGCCUG [Fam1A.1 aminoacylation ribozyme variant] | 0.942 | 1.2 | 1.24 | 1.03 | 0.974 | 2.02
23 | CUACUUUAAACAAUCGGUCUU [Fam1A.1 aminoacylation ribozyme variant] | 0.805 | 0.888 | 1.09 | 0.885 | 0.738 | 0.6
24 | CUACUUUACACAAUCGGUCUG [Fam1A.1 aminoacylation ribozyme variant] | 0.601 | 0.87 | 0.872 | 0.805 | 0.742 | 0.543
25 | CUACUUUCAACAAUCGGUCUG [Fam1A.1 aminoacylation ribozyme variant] | 14.5 | 0.99 | 0.895 | 1.06 | 1.09 | 10.3
26 | CUACUUUUAACAAUCGGUCUG [Fam1A.1 aminoacylation ribozyme variant] | 0.864 | 0.888 | 0.921 | 0.802 | 0.713 | 0.516
27 | CUAGCUCAAACAAUCGGUCUG [Fam1A.1 aminoacylation ribozyme variant] | 4.58 | 0.817 | 0.776 | 0.914 | 0.742 | 3.09
28 | CUAGUGCAAACAAUCGGUCUG [Fam1A.1 aminoacylation ribozyme variant] | 2.39 | 0.998 | 0.962 | 1 | 1.03 | 0.9
29 | CUAGUUCAAACAAACGGUCUG [Fam1A.1 aminoacylation ribozyme variant] | 0.831 | 0.913 | 0.814 | 0.77 | 0.91 | 0.823
30 | CUAGUUCAAACAACCGGUCUG [Fam1A.1 aminoacylation ribozyme variant] | 0.987 | 1.23 | 1.05 | 1.2 | 0.965 | 0.982
31 | CUAGUUCAAACAGUCGGUCUG [Fam1A.1 aminoacylation ribozyme variant] | 0.551 | 1.04 | 0.947 | 0.945 | 1.12 | 0.759
32 | CUAGUUCAAAGAAUCGGUCUG [Fam1A.1 aminoacylation ribozyme variant] | 1.5 | 0.967 | 1.04 | 0.951 | 1.14 | 1.44
33 | CUAGUUCAAAUAAUCGGUCUG [Fam1A.1 aminoacylation ribozyme variant] | 3.78 | 0.901 | 0.872 | 0.793 | 0.879 | 2.87
34 | CUAGUUUAAACAAUCGGUCUG [Fam1A.1 aminoacylation ribozyme variant] | 0.814 | 0.924 | 0.84 | 0.765 | 0.774 | 0.631
35 | CUAUAUCAAACAAUCGGUCUG [Fam1A.1 aminoacylation ribozyme variant] | 1.62 | 0.752 | 0.561 | 0.634 | 0.638 | 1.01
36 | CUAUUUAAAACAAUCGGUCUG [Fam1A.1 aminoacylation ribozyme variant] | 0.598 | 0.834 | 0.927 | 0.841 | 0.774 | 0.616
37 | CUAUUUCAAACAAACGGUCUG [Fam1A.1 aminoacylation ribozyme variant] | 1.2 | 0.961 | 0.923 | 0.971 | 0.72 | 0.586
38 | CUAUUUCAAACAAUAGGUCUG [Fam1A.1 aminoacylation ribozyme variant] | 1.03 | 1.25 | 1.11 | 1.01 | 1.08 | 0.803
39 | CUAUUUCAAACAAUCCGUCUG [Fam1A.1 aminoacylation ribozyme variant] | 0.946 | 0.826 | 0.818 | 0.735 | 0.715 | 0.595
40 | CUAUUUCAAACAAUCGGUCGG [Fam1A.1 aminoacylation ribozyme variant] | 2.12 | 0.851 | 0.793 | 0.868 | 0.92 | 1.9
41 | CUAUUUCAAACAAUCGGUCUA [Fam1A.1 aminoacylation ribozyme variant] | 2.12 | 0.713 | 0.634 | 0.588 | 0.571 | 1.15
42 | CUAUUUCAAACAAUCGGUCUG [Fam1A.1 aminoacylation ribozyme variant] | 8.5 | 0.819 | 0.789 | 0.781 | 0.838 | 4.39
